The results in this text go back to article PMC3326312.

Data set [1] addresses T1, core RNA polymerase (wild type);sigma70 (Escherichia coli;Escherichia coli, UniProt P0A7Z4;P0A8V2;P0A8T7;P00579 1-329;1-1342;1-1407;1-613, |). The experiment in a line: KMnO4 footprinting.
Data set [2] concerns the target T2, core RNA polymerase (wild type) (Escherichia coli, UniProt P0A7Z4;P0A8V2;P0A8T7 1-329;1-1342;1-1407). The experiment in a line: KMnO4 footprinting.
In data set [3] the target is T1, core RNA polymerase (wild type);sigma70. The experiment in a line: ExoIII footprinting.
For data set [4], the target named is T2, core RNA polymerase (wild type). In words: ExoIII footprinting.
Data set [5] deals with core RNA polymerase (wild type);sigma70 fragment 1-448 (Escherichia coli;Escherichia coli, UniProt P0A7Z4;P0A8V2;P0A8T7;P00579 1-329;1-1342;1-1407;1-448, |). The experiment in a line: ExoIII footprinting.

T2 sequence (P0A7Z4 whole entry, chain 1 of 2): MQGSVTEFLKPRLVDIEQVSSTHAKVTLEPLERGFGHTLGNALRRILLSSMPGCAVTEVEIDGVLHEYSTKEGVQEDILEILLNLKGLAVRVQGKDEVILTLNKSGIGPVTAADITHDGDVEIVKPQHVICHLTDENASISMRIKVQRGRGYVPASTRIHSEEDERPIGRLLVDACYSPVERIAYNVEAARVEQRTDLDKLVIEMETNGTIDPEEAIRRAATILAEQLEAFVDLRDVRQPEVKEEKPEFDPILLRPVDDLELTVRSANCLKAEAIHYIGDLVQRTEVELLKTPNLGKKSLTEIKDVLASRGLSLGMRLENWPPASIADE
T2 sequence (P0A8V2 whole entry, chain 2 of 2): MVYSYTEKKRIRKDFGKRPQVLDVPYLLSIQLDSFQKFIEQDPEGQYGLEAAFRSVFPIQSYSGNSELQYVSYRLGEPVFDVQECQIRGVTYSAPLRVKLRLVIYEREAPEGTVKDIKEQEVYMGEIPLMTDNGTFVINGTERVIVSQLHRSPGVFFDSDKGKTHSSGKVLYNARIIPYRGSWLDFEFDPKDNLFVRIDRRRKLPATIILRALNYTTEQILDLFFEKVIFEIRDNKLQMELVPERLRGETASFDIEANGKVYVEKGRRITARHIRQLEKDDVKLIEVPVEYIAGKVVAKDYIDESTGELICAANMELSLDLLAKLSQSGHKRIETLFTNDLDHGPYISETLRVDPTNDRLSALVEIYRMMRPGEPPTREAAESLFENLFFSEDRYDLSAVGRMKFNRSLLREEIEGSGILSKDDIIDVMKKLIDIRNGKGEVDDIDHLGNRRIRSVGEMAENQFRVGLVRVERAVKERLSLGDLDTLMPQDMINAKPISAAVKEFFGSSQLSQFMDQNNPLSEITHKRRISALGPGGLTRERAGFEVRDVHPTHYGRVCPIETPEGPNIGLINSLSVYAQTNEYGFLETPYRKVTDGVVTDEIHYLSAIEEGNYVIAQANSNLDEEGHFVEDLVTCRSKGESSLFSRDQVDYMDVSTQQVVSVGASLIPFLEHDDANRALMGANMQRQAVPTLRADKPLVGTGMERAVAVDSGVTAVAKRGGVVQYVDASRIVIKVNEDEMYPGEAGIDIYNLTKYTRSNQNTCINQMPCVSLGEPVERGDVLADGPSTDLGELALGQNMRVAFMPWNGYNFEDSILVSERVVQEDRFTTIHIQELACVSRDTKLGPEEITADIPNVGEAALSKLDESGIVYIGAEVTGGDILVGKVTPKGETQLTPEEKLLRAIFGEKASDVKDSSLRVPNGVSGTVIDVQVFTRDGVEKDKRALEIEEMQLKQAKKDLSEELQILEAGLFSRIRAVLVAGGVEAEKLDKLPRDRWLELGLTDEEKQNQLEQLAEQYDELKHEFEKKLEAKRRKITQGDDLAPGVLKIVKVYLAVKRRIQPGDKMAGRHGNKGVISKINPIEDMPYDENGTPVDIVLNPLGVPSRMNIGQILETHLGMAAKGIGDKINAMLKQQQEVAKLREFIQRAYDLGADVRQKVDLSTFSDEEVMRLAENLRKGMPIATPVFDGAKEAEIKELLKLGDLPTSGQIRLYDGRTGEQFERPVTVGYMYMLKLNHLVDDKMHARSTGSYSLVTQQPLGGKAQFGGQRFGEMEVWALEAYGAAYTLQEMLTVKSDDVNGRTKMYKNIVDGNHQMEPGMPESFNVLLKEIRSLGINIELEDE
T1 sequence (P0A7Z4 whole entry, chain 1 of 3): as the sequence (P0A7Z4 whole entry, chain 1 of 2) above
T1 sequence (P0A8V2 whole entry, chain 2 of 3): as the sequence (P0A8V2 whole entry, chain 2 of 2) above
T1 sequence (P00579 whole entry, chain 4 of 3): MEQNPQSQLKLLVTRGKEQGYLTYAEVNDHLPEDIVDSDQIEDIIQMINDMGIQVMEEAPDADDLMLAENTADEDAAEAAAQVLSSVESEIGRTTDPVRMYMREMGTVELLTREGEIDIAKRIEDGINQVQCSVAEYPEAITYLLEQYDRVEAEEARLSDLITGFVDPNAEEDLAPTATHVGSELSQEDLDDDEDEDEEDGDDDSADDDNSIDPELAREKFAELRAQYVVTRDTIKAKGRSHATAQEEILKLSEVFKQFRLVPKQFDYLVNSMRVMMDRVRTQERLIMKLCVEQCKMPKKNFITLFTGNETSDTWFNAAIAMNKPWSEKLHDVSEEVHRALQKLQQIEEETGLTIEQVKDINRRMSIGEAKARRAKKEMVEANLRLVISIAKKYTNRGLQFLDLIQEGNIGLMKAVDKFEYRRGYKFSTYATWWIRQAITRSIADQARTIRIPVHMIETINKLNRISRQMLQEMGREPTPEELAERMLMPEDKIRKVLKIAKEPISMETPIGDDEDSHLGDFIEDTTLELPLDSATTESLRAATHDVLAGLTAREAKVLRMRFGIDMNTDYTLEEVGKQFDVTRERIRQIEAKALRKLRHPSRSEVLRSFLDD

B1: Cons scaffold, 20-mer RNA (mixed)
DNA 1: AGGATACTTAGTGCTATAATGAGCGGATCGCATGTTCACACAGGAAACAGCTGATTGCCC
DNA 2: GGGCAATCAGCTGTTTCCTGTGTGAACATGCGATCCGCTCATTATAGCACTAAGTATCCT
RNA: AUCACGAUAAAUGAGCGGAU
As for B1, the binding result in data set [1] and in data set [2] was “binds” throughout.

B2: Cons_up scaffold, 20-mer RNA (mixed)
DNA 1: CAGTGAATTCAGGATACTTAGTGCTATAATGAGCGGATCGCATGTTCACACAGGAAACAGCTGATTGCCC
DNA 2: GGGCAATCAGCTGTTTCCTGTGTGAACATGCGATCCGCTCATTATAGCACTAAGTATCCTGAATTCACTG
RNA: AUCACGAUAAAUGAGCGGAU
Regarding B2, the binding result in data set [3], in data set [4] and in data set [5] was “binds” throughout.
